In patent US20260001928A1 (CORTERIA PHARMACEUTICALS, priority 2022, published 2026):
*1 amine or outer side, *2 acyl side, *3 side chain or, on linkers, in order; H or OH if unused. Where no end group is shown, it is not given here. Side-chain parts run from the residue outwards. [ ]: non-standard residue; d: D form. The star is where a group is joined. C18 diacid = O=C(O)CCCCCCCCCCCCCCCCC(=O)*; C16 diacid = O=C(O)CCCCCCCCCCCCCCC(=O)*; γGlu = O=C(O)[C@H](CCC(=O)[*:2])N[*:1]; C12 diacid = O=C(O)CCCCCCCCCCC(=O)*; NMeI = CC[C@H](C)[C@H](NC)C(=O)O; Api = NC1(C(=O)O)CCNCC1; Pentanoyl = CCCCC(=O)*; Aib = CC(C)(N)C(=O)O; Propionyl = CCC(=O)*

B1: SEQ ID NO 185 (peptide)
peptide: Pentanoyl-VLSLD[dV]PIKLK([γGlu-C12 diacid])KILLEQEKQKKQREQAETN[Aib]QILAQV-NH2
SMILES: CCCCC(=O)N[C@H](C(=O)N[C@@H](CC(C)C)C(=O)N[C@@H](CO)C(=O)N[C@@H](CC(C)C)C(=O)N[C@@H](CC(=O)O)C(=O)N[C@@H](C(=O)N1CCC[C@H]1C(=O)N[C@H](C(=O)N[C@@H](CCCCN)C(=O)N[C@@H](CC(C)C)C(=O)N[C@@H](CCCCNC(=O)CC[C@H](NC(=O)CCCCCCCCCCC(=O)O)C(=O)O)C(=O)N[C@@H](CCCCN)C(=O)N[C@H](C(=O)N[C@@H](CC(C)C)C(=O)N[C@@H](CC(C)C)C(=O)N[C@@H](CCC(=O)O)C(=O)N[C@@H](CCC(N)=O)C(=O)N[C@@H](CCC(=O)O)C(=O)N[C@@H](CCCCN)C(=O)N[C@@H](CCC(N)=O)C(=O)N[C@@H](CCCCN)C(=O)N[C@@H](CCCCN)C(=O)N[C@@H](CCC(N)=O)C(=O)N[C@@H](CCCNC(=N)N)C(=O)N[C@@H](CCC(=O)O)C(=O)N[C@@H](CCC(N)=O)C(=O)N[C@@H](C)C(=O)N[C@@H](CCC(=O)O)C(=O)N[C@H](C(=O)N[C@@H](CC(N)=O)C(=O)NC(C)(C)C(=O)N[C@@H](CCC(N)=O)C(=O)N[C@H](C(=O)N[C@@H](CC(C)C)C(=O)N[C@@H](C)C(=O)N[C@@H](CCC(N)=O)C(=O)N[C@H](C(N)=O)C(C)C)[C@@H](C)CC)[C@@H](C)O)[C@@H](C)CC)[C@@H](C)CC)C(C)C)C(C)C
B2: SEQ ID NO 184 (peptide)
peptide: Ac-IVLSLD[dV]PIKLK([γGlu-C12 diacid])KILLEQEKQK[Aib]QREQAETN[Api]QILAQV-NH2
SMILES: CC[C@H](C)[C@H](NC(C)=O)C(=O)N[C@H](C(=O)N[C@@H](CC(C)C)C(=O)N[C@@H](CO)C(=O)N[C@@H](CC(C)C)C(=O)N[C@@H](CC(=O)O)C(=O)N[C@@H](C(=O)N1CCC[C@H]1C(=O)N[C@H](C(=O)N[C@@H](CCCCN)C(=O)N[C@@H](CC(C)C)C(=O)N[C@@H](CCCCNC(=O)CC[C@H](NC(=O)CCCCCCCCCCC(=O)O)C(=O)O)C(=O)N[C@@H](CCCCN)C(=O)N[C@H](C(=O)N[C@@H](CC(C)C)C(=O)N[C@@H](CC(C)C)C(=O)N[C@@H](CCC(=O)O)C(=O)N[C@@H](CCC(N)=O)C(=O)N[C@@H](CCC(=O)O)C(=O)N[C@@H](CCCCN)C(=O)N[C@@H](CCC(N)=O)C(=O)N[C@@H](CCCCN)C(=O)NC(C)(C)C(=O)N[C@@H](CCC(N)=O)C(=O)N[C@@H](CCCNC(=N)N)C(=O)N[C@@H](CCC(=O)O)C(=O)N[C@@H](CCC(N)=O)C(=O)N[C@@H](C)C(=O)N[C@@H](CCC(=O)O)C(=O)N[C@H](C(=O)N[C@@H](CC(N)=O)C(=O)NC1(C(=O)N[C@@H](CCC(N)=O)C(=O)N[C@H](C(=O)N[C@@H](CC(C)C)C(=O)N[C@@H](C)C(=O)N[C@@H](CCC(N)=O)C(=O)N[C@H](C(N)=O)C(C)C)[C@@H](C)CC)CCNCC1)[C@@H](C)O)[C@@H](C)CC)[C@@H](C)CC)C(C)C)C(C)C
B3: SEQ ID NO 6 (peptide)
peptide: Propionyl-VLSLD[dV]PIKLK([γGlu-C16 diacid])QILLKQERQKKQREQAEKNKQILEQV-NH2
SMILES: CCC(=O)N[C@H](C(=O)N[C@@H](CC(C)C)C(=O)N[C@@H](CO)C(=O)N[C@@H](CC(C)C)C(=O)N[C@@H](CC(=O)O)C(=O)N[C@@H](C(=O)N1CCC[C@H]1C(=O)N[C@H](C(=O)N[C@@H](CCCCN)C(=O)N[C@@H](CC(C)C)C(=O)N[C@@H](CCCCNC(=O)CC[C@H](NC(=O)CCCCCCCCCCCCCCC(=O)O)C(=O)O)C(=O)N[C@@H](CCC(N)=O)C(=O)N[C@H](C(=O)N[C@@H](CC(C)C)C(=O)N[C@@H](CC(C)C)C(=O)N[C@@H](CCCCN)C(=O)N[C@@H](CCC(N)=O)C(=O)N[C@@H](CCC(=O)O)C(=O)N[C@@H](CCCNC(=N)N)C(=O)N[C@@H](CCC(N)=O)C(=O)N[C@@H](CCCCN)C(=O)N[C@@H](CCCCN)C(=O)N[C@@H](CCC(N)=O)C(=O)N[C@@H](CCCNC(=N)N)C(=O)N[C@@H](CCC(=O)O)C(=O)N[C@@H](CCC(N)=O)C(=O)N[C@@H](C)C(=O)N[C@@H](CCC(=O)O)C(=O)N[C@@H](CCCCN)C(=O)N[C@@H](CC(N)=O)C(=O)N[C@@H](CCCCN)C(=O)N[C@@H](CCC(N)=O)C(=O)N[C@H](C(=O)N[C@@H](CC(C)C)C(=O)N[C@@H](CCC(=O)O)C(=O)N[C@@H](CCC(N)=O)C(=O)N[C@H](C(N)=O)C(C)C)[C@@H](C)CC)[C@@H](C)CC)[C@@H](C)CC)C(C)C)C(C)C
B4: SEQ ID NO 186 (peptide)
peptide: [NMeI]VLSLD[dV]PIKLK([γGlu-C12 diacid])KILLEQEKQKKQREQAETN[Aib]QILAQV-NH2
modifications: N-terminus assumed
SMILES: CC[C@H](C)[C@H](NC)C(=O)N[C@H](C(=O)N[C@@H](CC(C)C)C(=O)N[C@@H](CO)C(=O)N[C@@H](CC(C)C)C(=O)N[C@@H](CC(=O)O)C(=O)N[C@@H](C(=O)N1CCC[C@H]1C(=O)N[C@H](C(=O)N[C@@H](CCCCN)C(=O)N[C@@H](CC(C)C)C(=O)N[C@@H](CCCCNC(=O)CC[C@H](NC(=O)CCCCCCCCCCC(=O)O)C(=O)O)C(=O)N[C@@H](CCCCN)C(=O)N[C@H](C(=O)N[C@@H](CC(C)C)C(=O)N[C@@H](CC(C)C)C(=O)N[C@@H](CCC(=O)O)C(=O)N[C@@H](CCC(N)=O)C(=O)N[C@@H](CCC(=O)O)C(=O)N[C@@H](CCCCN)C(=O)N[C@@H](CCC(N)=O)C(=O)N[C@@H](CCCCN)C(=O)N[C@@H](CCCCN)C(=O)N[C@@H](CCC(N)=O)C(=O)N[C@@H](CCCNC(=N)N)C(=O)N[C@@H](CCC(=O)O)C(=O)N[C@@H](CCC(N)=O)C(=O)N[C@@H](C)C(=O)N[C@@H](CCC(=O)O)C(=O)N[C@H](C(=O)N[C@@H](CC(N)=O)C(=O)NC(C)(C)C(=O)N[C@@H](CCC(N)=O)C(=O)N[C@H](C(=O)N[C@@H](CC(C)C)C(=O)N[C@@H](C)C(=O)N[C@@H](CCC(N)=O)C(=O)N[C@H](C(N)=O)C(C)C)[C@@H](C)CC)[C@@H](C)O)[C@@H](C)CC)[C@@H](C)CC)C(C)C)C(C)C
B5: SEQ ID NO 187 (peptide)
peptide: Ac-IVLSLD[dV]PIKLK([γGlu-C18 diacid])KILLEQEKQKAQREQAETN[Api]QILAQV-NH2
SMILES: CC[C@H](C)[C@H](NC(C)=O)C(=O)N[C@H](C(=O)N[C@@H](CC(C)C)C(=O)N[C@@H](CO)C(=O)N[C@@H](CC(C)C)C(=O)N[C@@H](CC(=O)O)C(=O)N[C@@H](C(=O)N1CCC[C@H]1C(=O)N[C@H](C(=O)N[C@@H](CCCCN)C(=O)N[C@@H](CC(C)C)C(=O)N[C@@H](CCCCNC(=O)CC[C@H](NC(=O)CCCCCCCCCCCCCCCCC(=O)O)C(=O)O)C(=O)N[C@@H](CCCCN)C(=O)N[C@H](C(=O)N[C@@H](CC(C)C)C(=O)N[C@@H](CC(C)C)C(=O)N[C@@H](CCC(=O)O)C(=O)N[C@@H](CCC(N)=O)C(=O)N[C@@H](CCC(=O)O)C(=O)N[C@@H](CCCCN)C(=O)N[C@@H](CCC(N)=O)C(=O)N[C@@H](CCCCN)C(=O)N[C@@H](C)C(=O)N[C@@H](CCC(N)=O)C(=O)N[C@@H](CCCNC(=N)N)C(=O)N[C@@H](CCC(=O)O)C(=O)N[C@@H](CCC(N)=O)C(=O)N[C@@H](C)C(=O)N[C@@H](CCC(=O)O)C(=O)N[C@H](C(=O)N[C@@H](CC(N)=O)C(=O)NC1(C(=O)N[C@@H](CCC(N)=O)C(=O)N[C@H](C(=O)N[C@@H](CC(C)C)C(=O)N[C@@H](C)C(=O)N[C@@H](CCC(N)=O)C(=O)N[C@H](C(N)=O)C(C)C)[C@@H](C)CC)CCNCC1)[C@@H](C)O)[C@@H](C)CC)[C@@H](C)CC)C(C)C)C(C)C
B6: SEQ ID NO 183 (peptide)
peptide: Ac-IVLSLD[dV]PIKLK([γGlu-C12 diacid])KILLEQEKQKKQREQAETN[Api]QILAQV-NH2
SMILES: CC[C@H](C)[C@H](NC(C)=O)C(=O)N[C@H](C(=O)N[C@@H](CC(C)C)C(=O)N[C@@H](CO)C(=O)N[C@@H](CC(C)C)C(=O)N[C@@H](CC(=O)O)C(=O)N[C@@H](C(=O)N1CCC[C@H]1C(=O)N[C@H](C(=O)N[C@@H](CCCCN)C(=O)N[C@@H](CC(C)C)C(=O)N[C@@H](CCCCNC(=O)CC[C@H](NC(=O)CCCCCCCCCCC(=O)O)C(=O)O)C(=O)N[C@@H](CCCCN)C(=O)N[C@H](C(=O)N[C@@H](CC(C)C)C(=O)N[C@@H](CC(C)C)C(=O)N[C@@H](CCC(=O)O)C(=O)N[C@@H](CCC(N)=O)C(=O)N[C@@H](CCC(=O)O)C(=O)N[C@@H](CCCCN)C(=O)N[C@@H](CCC(N)=O)C(=O)N[C@@H](CCCCN)C(=O)N[C@@H](CCCCN)C(=O)N[C@@H](CCC(N)=O)C(=O)N[C@@H](CCCNC(=N)N)C(=O)N[C@@H](CCC(=O)O)C(=O)N[C@@H](CCC(N)=O)C(=O)N[C@@H](C)C(=O)N[C@@H](CCC(=O)O)C(=O)N[C@H](C(=O)N[C@@H](CC(N)=O)C(=O)NC1(C(=O)N[C@@H](CCC(N)=O)C(=O)N[C@H](C(=O)N[C@@H](CC(C)C)C(=O)N[C@@H](C)C(=O)N[C@@H](CCC(N)=O)C(=O)N[C@H](C(N)=O)C(C)C)[C@@H](C)CC)CCNCC1)[C@@H](C)O)[C@@H](C)CC)[C@@H](C)CC)C(C)C)C(C)C

Legend:
CRF1R receptor = biological target: T1, CRF1R receptor (UniProt P34998 24-415, limits assumed); assay: cell-based or functional assay
T1 sequence (looked up): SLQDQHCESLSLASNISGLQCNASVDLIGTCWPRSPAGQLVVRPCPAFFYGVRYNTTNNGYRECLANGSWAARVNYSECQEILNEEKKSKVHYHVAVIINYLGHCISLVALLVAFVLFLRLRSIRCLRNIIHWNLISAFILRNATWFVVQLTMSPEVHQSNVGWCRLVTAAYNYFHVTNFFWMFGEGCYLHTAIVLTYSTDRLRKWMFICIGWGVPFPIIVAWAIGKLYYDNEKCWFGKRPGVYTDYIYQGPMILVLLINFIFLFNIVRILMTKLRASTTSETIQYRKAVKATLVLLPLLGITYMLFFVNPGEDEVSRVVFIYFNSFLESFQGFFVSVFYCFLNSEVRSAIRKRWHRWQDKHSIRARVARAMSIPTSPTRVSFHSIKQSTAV

[1] = biological target: human corticotropin-releasing factor 2a (CRF2a receptor) (human), Q13324; assay: cell-based or functional assay
Sequence of human corticotropin-releasing factor 2a (CRF2a receptor) (human), Q13324 (Q13324 20-411): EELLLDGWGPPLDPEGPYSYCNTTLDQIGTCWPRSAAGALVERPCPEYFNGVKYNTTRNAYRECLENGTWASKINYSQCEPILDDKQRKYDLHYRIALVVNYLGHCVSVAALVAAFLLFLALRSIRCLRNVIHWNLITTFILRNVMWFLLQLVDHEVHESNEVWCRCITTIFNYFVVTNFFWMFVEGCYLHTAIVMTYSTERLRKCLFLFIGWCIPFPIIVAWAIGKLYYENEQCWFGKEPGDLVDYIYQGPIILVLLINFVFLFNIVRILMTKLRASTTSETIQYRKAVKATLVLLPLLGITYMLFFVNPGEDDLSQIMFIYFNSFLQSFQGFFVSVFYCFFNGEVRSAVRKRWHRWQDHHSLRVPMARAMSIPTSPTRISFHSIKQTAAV

| Binder | Emax (% I) (CRF1R receptor) | EC50 [nM] (cAMP) [1] | EC50 (CRF1R receptor) |
| --- | --- | --- | --- |
| B1 | 2% | 3.54 nM |  |
| B2 | 3% | 4.25 nM |  |
| B3 | 56% | 0.09 nM | 166 nM |
| B4 | 2% | 0.79 nM |  |
| B5 | 37% | 0.26 nM | 195 nM |
| B6 | 11% | 2.47 nM |  |
